The RNAGym collection of RNA variant scans (doi:10.1073/pnas.2313332121)

B1: TPR t1 (parent)
chain: GACCAAUCUGCCCUCAGAGCUCGAGAACAUCUUCGGAUGCAGAGGAGGCAGGCUUCGGUGGCGCGAUAGCGCCAACGUCCUCAACCUCCAAUGCAUCCCACCACAUGAUGAUGCCUGAAGAGCCUUGGUUUUUUG

Variants of: B1
Assay: polymerase ribozyme fitness, log enrichment relative to wild type (log ratio); higher = more active; in vitro selection for triplet polymerase activity
Summary of the method: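 Both subunits of a heterodimeric triplet polymerase ribozyme were given their own mutant library, built by PCR and transcribed. Each library was annealed with a biotinylated primer, the partner subunit and triplets, incubated frozen at −7 °C, and its extended constructs gel-excised, captured on streptavidin beads and amplified by RT-PCR, all in one round done in triplicate. Fitness is the logarithm of genotype enrichment relative to wild-type enrichment, with replicates averaged by inverse-variance weighting. That logarithm is base 2, and Illumina-sequenced genotypes needed ≥10 input reads and ≥1 read per output.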

| Variant | polymerase ribozyme fitness (log ratio) |
| --- | --- |
| U14G U130A | -3.36 |
| U14G G48U | -2.8 |
| C15A C56U U59C C64U A84U C98G G110A | -7.69 |
| C13G G48C G63U A105C | -5.9 |
| C15A G19U G63C G113A G135C | -3.99 |
| C13U C72U C94G | -1.35 |
| C13G G36A C40G | -4.55 |
| U14A U33G C34A G47C C70U U112A G127A | -6.98 |
| C15A C40A C102U C114G | -6.22 |
| U14A A37U G52A U59C | -3.31 |
| C15G A37C C49U C53U | -4.47 |
| C15G A43U C49U A74G | -4.91 |
| C13G G60A G77C U130C | -3.08 |
| U14A G52U C72U U116C G122U | -4.11 |
| U14G C114U U132A | -7.19 |
| C13U C99U U133G | -2.46 |
| U14G U78A G117A G120A | -2.29 |
| C13U A18U C31U C64G A103C G110A | -5.64 |
| C13G C56G G69C C89A G117U | -6.43 |
| C13U C20G G45A U96A | -4.96 |
| C15A G47U G127C | -5.43 |

| Variant | polymerase ribozyme fitness (log ratio) |
| --- | --- |
| C13U A27U G36A G61A C79A | -5.13 |
| C15A C62A C76U U96G C115U | -6.47 |
| C13U C40U C124U G135C | 0.605 |
| C13U A26U | -3.03 |
| C13G G61A C94G U116A | -6.69 |
| C13G G47C | -3.71 |
| C15G A43U C64A A84G C85G A90C U112G U132C | -6.82 |
| C13G G71U | -1.79 |
| C13U C53G C56A | -0.438 |
| U14A C49G G61C A66U | -5.01 |
| C13U C22G A26C A37U A41G A50G C115U | -3.21 |
| C13U G45C C70U C124A | -0.034 |
| C13G U54C G63A A100U U109A U131G | -6.38 |
| C13U C102U G117U | -3.38 |
| C13U G47U | -1.97 |
| C15A U33C A83U C101G G117C | -7.47 |
| C15A G77A U96A | -3.85 |
| U14A U21G | -1.66 |
| C13U A26G G63C U81A G117C | -6.91 |
| C13G G44A G48C U55G C79U C124G | -0.404 |
| C13U G39U U59A G128U | -1.64 |

| Variant | polymerase ribozyme fitness (log ratio) |
| --- | --- |
| U14C G44A A46U A75G A95U | -3.28 |
| C15A U78C | -2.38 |
| C13G G19C G61U C88U | -4.01 |
| C13U A46U G110A A111C A119C | -5.5 |
| C13U G61A | -0.508 |
| C13U A18U | -0.945 |
| U14C U54G C62U | -1.69 |
| C13G U32C C53A C70G | -3.88 |
| C13G G44U C82A | -3.4 |
| C15A A43G C53U | -3.68 |
| C13G C62A C124A | 0.6 |
| U14A G45A G47U G52A C86A | -3.59 |
| C15A G51A A74U C79G A111C A118U | -6.36 |
| U14C C53G A74C A83G C94U | -2.55 |
| C15G A37C C73G G120C G128U | -4.14 |
| C13U C53A U54C G120C | 1.15 |
| C13U C70U U109A U132A | -6.56 |
| U14A G48A U59A C89A | -5.96 |
| C13U A108U | -4.78 |
| U14C G48U U54A | -2.87 |
| C13U U55G C72U | -0.221 |

| Variant | polymerase ribozyme fitness (log ratio) |
| --- | --- |
| C13U C104U | -0.259 |
| U14G A111C G127A | -3.8 |
| C13U G44A C79G G93U | -4.32 |
| C15A G23U C72G C98A C114G U116A | -7.66 |
| U14G G44C C86U C89U G120A | -2.75 |
| C13G C72A U78G | -2.9 |
| C13U C88A | -0.243 |
| C13G C80A C82G U130C | -4.35 |
| C13U G45U U55C C70U G93U | -3.96 |
| U14A G71C G128A | -3.99 |
| C13G G52U | -3.2 |
| C13U G60A | 0.0451 |
| C13U G60U | -0.0139 |
| C15A G60U | -2.01 |
| C13U C40U A43U C72G A84G C89G | -6.24 |
| C13U G69A C88U | -2.75 |
| C15A G61A A83U G117C | -5.31 |
| C15A U33A G117A | -5.68 |
| C15A C76U C79A C104A C123A | -4.6 |
| C13U A29U A46U C56A C97U | -3.44 |
